Results published in article doi:10.1101/2022.01.26.477835 (bioRxiv, 2022).

Molecular target: His fused LCK (His-LCK) (human, UniProt P06239 1-509)
Assay: pull-down

Sequence of His fused LCK (His-LCK) (P06239 whole entry, the tested form may be a part): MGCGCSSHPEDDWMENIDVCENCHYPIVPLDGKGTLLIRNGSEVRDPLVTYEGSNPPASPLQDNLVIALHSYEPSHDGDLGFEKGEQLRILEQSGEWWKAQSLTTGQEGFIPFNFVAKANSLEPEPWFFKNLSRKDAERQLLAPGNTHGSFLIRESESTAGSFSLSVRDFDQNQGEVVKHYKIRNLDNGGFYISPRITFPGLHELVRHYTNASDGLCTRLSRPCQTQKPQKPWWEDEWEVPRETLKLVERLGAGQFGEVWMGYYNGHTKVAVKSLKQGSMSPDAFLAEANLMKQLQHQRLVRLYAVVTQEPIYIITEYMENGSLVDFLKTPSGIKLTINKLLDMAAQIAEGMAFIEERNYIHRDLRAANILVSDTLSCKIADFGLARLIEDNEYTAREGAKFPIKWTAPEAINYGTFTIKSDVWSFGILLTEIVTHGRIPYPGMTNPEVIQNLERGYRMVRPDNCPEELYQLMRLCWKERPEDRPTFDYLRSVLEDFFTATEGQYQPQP

binding result: binds
B1: GST-tagged C-terminus of TRPM8 (GST-M8C) (domain or fragment, rat, UniProt Q8R455 980-1104, looked up)
chain: GYTVGIVQENNDQVWKFQRYFLVQEYCNRLNIPFPFVVFAYFYMVVKKCFKCCCKEKNTESSACCFRNEDNETLAWEGVMKENYLVKINTKANDNAEEMRHRFRQLDTKLNDLKGLLKEIANKIK
